To fix the notation:
B1: scFv; the commonest letter at each place (parent)
chain 1: EVKLDETGGGLVQPGRPMKLSCVASGFTFSDYWMNWVRQSPEKGLEWVAQIRNKPYNYETYYSDSVKGRFTISRDDSKSSVYLQMNNLRVEDMGIYYCTGSYYGMDYWGQGTSVTVS
chain 2: DVVMTQTPLSLPVSLGDQASISCRSSQSLVHSNGNTYLRWYLQKPGQSPKVLIYKVSNRFSGVPDRFSGSGSGTDFTLKISRVEAEDLGVYFCSQSTHVPWTFGGGTKLEIK

The data set “fluorescein” covers variants of B1. The experiment in a line: Kd (Tite-Seq). The note with it: with fluorescein; format: scFv 4-4-20, heavy + light.
In data set [1] the parent is B1. The experiment in a line: yeast surface expression (ratio to wild type); higher = more expressed. The note with it: format: scFv 4-4-20, heavy + light.

A value given as a limit tells only on which side of the number the result lay.

In the case of chain 1 T28K M34V, the Kd with fluorescein is 1.22 nM. For the same variant, the yeast surface expression in data set [1] came to 0.867.
In the same order, the values of chain 1 T28K M34K are 6960 nM and 0.284.
For chain 1 T28M S30A W36F, in that order: 1.58 nM and 0.845.
In the same order, the values of chain 1 T28V D31M are 4.44 nM and 0.587.
Turning to chain 1 T28Q D31A, the Kd with fluorescein turned out to be 5.75 nM. Besides, the yeast surface expression in data set [1] turned out to be 0.845.
In the same order, the values of chain 1 T28K S30H are 1.42 nM and 0.814.
For chain 1 T28K S30I, in that order: 1.35 nM and 0.889.
As to chain 1 T28P S30G, the Kd with fluorescein came to 0.804 nM. In addition, the yeast surface expression in data set [1] came to 1.25.
For chain 1 T28P S30N, in that order: 0.989 nM and 1.1.
For chain 1 T28P S30K, in that order: at most 0.316 nM and 1.02.
For chain 1 T28M Y32W, in that order: at least 10000 nM and 0.903.
As for chain 1 T28S Y32S, in the data set with fluorescein, the Kd is 266 nM. Further, the yeast surface expression in data set [1] is 0.966.
For chain 1 T28N W36K, in that order: at least 10000 nM and 0.56.
In the same order, the values of chain 1 T28K F29C are 37.2 nM and 0.906.
For chain 1 T28K F29Y, in that order: 0.504 nM and 0.984.
chain 1 T28S W36R: in the data set with fluorescein, the Kd was determined as 1810 nM. For the same variant, the yeast surface expression in data set [1] was 0.57.
In the case of chain 1 T28S F29S, in the data set with fluorescein, the Kd came to 26.9 nM. In addition, the yeast surface expression in data set [1] came out at 1.17.
For chain 1 T28S F29A, in that order: 62.4 nM and 0.957.
In the same order, the values of chain 1 T28S F29Q are 6.38 nM and 0.969.
For chain 1 T28R D31L W33I, in that order: at least 10000 nM and 0.441.
As to chain 1 T28R S30F, the Kd with fluorescein is at most 0.316 nM. In addition, the yeast surface expression in data set [1] came out at 0.739.
In the same order, the values of chain 1 T28V F29Q are 4 nM and 0.917.
In the same order, the values of chain 1 T28V F29W are 15.4 nM and 0.491.
For chain 1 T28V F29D, in that order: at least 10000 nM and 0.952.
With chain 1 T28R N35G, the Kd with fluorescein stood at 16.2 nM. The yeast surface expression in data set [1] came to 1.03.
Consider chain 1 T28R D31K, for which the Kd with fluorescein was 3.25 nM. The yeast surface expression in data set [1] worked out at 0.833.
For chain 1 T28N W33M, the Kd with fluorescein is at least 10000 nM. Besides, the yeast surface expression in data set [1] is 1.01.
For chain 1 T28N W33Y, in that order: at least 10000 nM and 1.
For chain 1 T28R V37P, in that order: at least 10000 nM and 1.99.
As to chain 1 T28N F29R, the Kd in the data set with fluorescein was at least 10000 nM. In addition, the yeast surface expression in data set [1] was determined as 0.996.
In the same order, the values of chain 1 T28L W33Y are at least 10000 nM and 0.826.
In the same order, the values of chain 1 T28L W33S are at least 10000 nM and 0.867.
For chain 1 T28P V37S, in that order: 0.939 nM and 0.884.
With chain 1 T28P V37P, the Kd in the data set with fluorescein is at least 10000 nM. Further, the yeast surface expression in data set [1] was 1.08.
In the same order, the values of chain 1 T28L F29N are at least 10000 nM and 0.821.
In the same order, the values of chain 1 T28S S30R are 2.65 nM and 0.787.
In the same order, the values of chain 1 T28S S30I are 7.08 nM and 0.741.
In the case of chain 1 T28S S30M, in the data set with fluorescein, the Kd is 1.75 nM. Also, the yeast surface expression in data set [1] worked out at 0.95.
Consider chain 1 T28P Y32D W36I, for which, in the data set with fluorescein, the Kd is at least 10000 nM. Further, the yeast surface expression in data set [1] was 0.789.
In the same order, the values of chain 1 T28K W33S are at least 10000 nM and 0.995.
Take chain 1 T28K W33M: in the data set with fluorescein, the dissociation constant (Kd) was at least 10000 nM. Besides, the yeast surface expression in data set [1] was determined as 1.03.
In the same order, the values of chain 1 T28K W33D are at least 10000 nM and 0.981.
With chain 1 T28P W36Y, the Kd with fluorescein came to 4.22 nM. The yeast surface expression in data set [1] was determined as 1.05.
Turning to chain 1 T28P W36P, the Kd with fluorescein is at least 10000 nM. Besides, the yeast surface expression in data set [1] was found to be 0.295.
In the same order, the values of chain 1 T28L W36A are at least 10000 nM and 0.508.
For chain 1 T28Q M34P, in that order: at least 10000 nM and 0.676.
In the same order, the values of chain 1 T28R W36S are at least 10000 nM and 0.272.
Take chain 1 T28Q V37L: the Kd with fluorescein came out at 3550 nM. The yeast surface expression in data set [1] stood at 0.864.
For chain 1 T28Q V37F, in that order: 21 nM and 1.1.
For chain 1 T28L M34D, the Kd in the data set with fluorescein is at least 10000 nM. In addition, the yeast surface expression in data set [1] was 0.101.
In the same order, the values of chain 1 T28N M34E V37L are at least 10000 nM and 0.571.
For chain 1 T28N V37Y, in that order: at least 10000 nM and 1.05.
With chain 1 T28N V37A, the Kd with fluorescein was 72.9 nM. Besides, the yeast surface expression in data set [1] is 0.941.
In the same order, the values of chain 1 T28K Y32V are at least 10000 nM and 0.858.
On to chain 1 T28L S30Y, for which the Kd with fluorescein is 1.84 nM. The yeast surface expression in data set [1] worked out at 0.738.
In the same order, the values of chain 1 T28L S30N are 1.22 nM and 0.861.
In the same order, the values of chain 1 T28L S30R are 0.891 nM and 0.99.
On to chain 1 T28L S30A, for which the Kd with fluorescein was found to be 1.75 nM. Further, the yeast surface expression in data set [1] came out at 1.11.
In the same order, the values of chain 1 T28L S30C are 1.58 nM and 0.839.
In the same order, the values of chain 1 T28M M34C are 35.3 nM and 0.719.
In the same order, the values of chain 1 T28M M34N are 403 nM and 0.566.
chain 1 T28R S30L D31S: in the data set with fluorescein, the Kd was at least 10000 nM. For the same variant, the yeast surface expression in data set [1] was found to be 0.198.
For chain 1 T28K N35M V37L, in that order: at least 10000 nM and 0.642.
For chain 1 T28P D31S, in that order: 1.15 nM and 1.07.
In the case of chain 1 T28S M34N, the Kd in the data set with fluorescein was at least 10000 nM. Further, the yeast surface expression in data set [1] was determined as 0.645.
As for chain 1 T28S M34R, in the data set with fluorescein, the Kd is at least 10000 nM. Besides, in data set [1], the yeast surface expression was determined as 1.99.
For chain 1 T28P F29V, in that order: 7.08 nM and 0.927.
Turning to chain 1 T28N Y32Q, the Kd in the data set with fluorescein is at least 10000 nM. In addition, in data set [1], the yeast surface expression amounted to 1.04.
For chain 1 T28N Y32G, in that order: 345 nM and 1.19.
As for chain 1 T28Q F29Q V37S, the Kd in the data set with fluorescein turned out to be 62.4 nM. For the same variant, the yeast surface expression in data set [1] was 0.421.
In the same order, the values of chain 1 T28M V37G are at least 10000 nM and 0.468.
For chain 1 T28M V37K, in that order: at least 10000 nM and 0.399.
With chain 1 T28L N35D W36N, the Kd with fluorescein is at least 10000 nM. In addition, the yeast surface expression in data set [1] is 0.674.
In the same order, the values of chain 1 T28S D31C are 76.7 nM and 0.771.
For chain 1 T28K S30K M34Y, in that order: 5.75 nM and 0.855.
For chain 1 T28L, in that order: 1.66 nM and 0.955.
For the variant chain 1 T28M, in the data set with fluorescein, the Kd is 2.65 nM. Also, the yeast surface expression in data set [1] was 1.02.
Regarding chain 1 T28V, the Kd in the data set with fluorescein stood at 1.28 nM. Also, the yeast surface expression in data set [1] is 1.
For chain 1 T28Q, in that order: 0.763 nM and 1.06.
For chain 1 T28N, in that order: 1.21 nM and 0.895.
In the same order, the values of chain 1 T28P are 0.743 nM and 0.989.
For the variant chain 1 T28R, the Kd in the data set with fluorescein was determined as 1.38 nM. Moreover, the yeast surface expression in data set [1] came to 0.917.
For chain 1 T28S, in that order: 3.25 nM and 0.985.
For chain 1 T28N D31C, in that order: 4.68 nM and 0.826.
In the same order, the values of chain 1 T28P M34S are 15.4 nM and 0.95.
As for chain 1 T28Q Y32S, in the data set with fluorescein, the Kd was found to be 89.6 nM. Moreover, in data set [1], the yeast surface expression is 0.926.
In the same order, the values of chain 1 T28N D31I Y32R are at least 10000 nM and 0.627.
In the same order, the values of chain 1 T28M D31I W33Y are at least 10000 nM and 0.462.
For chain 1 T28Q W33V, in that order: at least 10000 nM and 1.34.
For the variant chain 1 T28N N35T, in the data set with fluorescein, the Kd was at least 10000 nM. In data set [1], the yeast surface expression was 0.93.
In the same order, the values of chain 1 T28N N35V are at least 10000 nM and 0.666.
In the same order, the values of chain 1 T28R W33G are at least 10000 nM and 0.684.
As for chain 1 T28R W33L, in the data set with fluorescein, the Kd was at least 10000 nM. Further, the yeast surface expression in data set [1] was determined as 0.935.
Regarding chain 1 T28S Y32F W36H, the Kd with fluorescein is at least 10000 nM. The yeast surface expression in data set [1] is 0.533.
For chain 1 T28S S30T W33R, in that order: at least 10000 nM and 0.708.
In the same order, the values of chain 1 T28S W33S are at least 10000 nM and 0.919.
In the same order, the values of chain 1 T28S W33F are 1020 nM and 0.903.
On to chain 1 T28S V37Q, for which, in the data set with fluorescein, the Kd stood at 1.84 nM. The yeast surface expression in data set [1] stood at 0.71.
For chain 1 T28S V37S, in that order: 7.85 nM and 0.757.
In the same order, the values of chain 1 T28L D31L are 22.1 nM and 0.425.
With chain 1 T28L D31G, the Kd in the data set with fluorescein stood at 1.28 nM. Besides, the yeast surface expression in data set [1] was found to be 0.717.
For chain 1 T28K V37L, the Kd with fluorescein was determined as 143 nM. In addition, the yeast surface expression in data set [1] was found to be 1.01.
In the same order, the values of chain 1 T28K V37R are 195 nM and 2.19.
In the same order, the values of chain 1 T28L V37Q are 10.2 nM and 0.731.
For chain 1 T28V M34Y, in that order: 9.66 nM and 0.889.
In the case of chain 1 T28V M34S, in the data set with fluorescein, the Kd stood at 35.3 nM. Moreover, the yeast surface expression in data set [1] stood at 0.593.
For chain 1 T28M S30W, in that order: 7.08 nM and 0.645.
Consider chain 1 T28M S30L, for which the equilibrium dissociation constant (Kd) with fluorescein is 10.7 nM. In addition, the yeast surface expression in data set [1] came to 0.725.
In the same order, the values of chain 1 T28K D31I are at least 10000 nM and 0.645.
For chain 1 T28K W36R, in that order: 50.7 nM and 0.393.
With chain 1 T28R Y32H, in the data set with fluorescein, the Kd is 25.9 nM. In addition, the yeast surface expression in data set [1] came out at 1.
For chain 1 T28R Y32G, in that order: 13.2 nM and 0.959.
For chain 1 T28P Y32C, in that order: 6.72 nM and 0.967.
In the same order, the values of chain 1 T28P Y32R are 5660 nM and 1.09.
Turning to chain 1 T28Q N35R, in the data set with fluorescein, the Kd was at least 10000 nM. Also, the yeast surface expression in data set [1] is 0.537.
In the same order, the values of chain 1 T28Q N35P are 832 nM and 0.622.

The values are drawn from the FLAb antibody collection (doi:10.7554/elife.23156).
